Assay results as given in patent publication US20260031189A1 (BIONTECH US, published 2026).

Target: S353-369
Experiment: FP assay; pair as listed in Table 23

B1: HLA-DRA*01:01/DRB4*01:03 soluble heterodimer (receptor)
MHC II alpha: not shown
MHC II beta: not shown
notes: also called HLA-DRB4*01:03/DRA*01:01
Question: Does B1 bind?
Answer: binds
